Experimental data taken from patent US20220194983A1 (Bicycle, published 2022).
Numbered stars: 1 amine (or outer) side, 2 acyl side, 3 side chain; on linkers, the order of the positions; unused ones are H or OH. Bridge positions count the residues as written; N and C are the ends. Square brackets hold non-standard residues; d marks the D form. Ends that are not written are not given here. TBMB = c1c(C[*:1])cc(C[*:3])cc1C[*:2]; Dap(Me) = CNC[C@H](N)C(=O)O

B1: 21-31-04-T01-N007 (peptide)
peptide: EVCWDCFMMEDGTCAXXXXXXK
modifications: N-terminal acetyl; D-Glu at 1; Cys 3, 6 and 14 joined by thioether linkages to TBMB scaffold; X16-X21 = Sar; D-Lys at 22
B2: 21-31-04-T01-N001 (peptide)
peptide: EVCWDCFMMEDGTCA
modifications: linker 3-6-14 via TBMB
notes: Bicyclic peptide on TBMB scaffold, all thioether

Tests used:
[1] = biological target: T1, prostate-specific membrane antigen (PSMA) (human, UniProt Q04609 44-750, limits assumed); experiment: fluorescence polarization, FP (h)
T1 construct: also called Glutamate carboxypeptidase II; GCPII
T1 sequence (Q04609 44-750 limits assumed): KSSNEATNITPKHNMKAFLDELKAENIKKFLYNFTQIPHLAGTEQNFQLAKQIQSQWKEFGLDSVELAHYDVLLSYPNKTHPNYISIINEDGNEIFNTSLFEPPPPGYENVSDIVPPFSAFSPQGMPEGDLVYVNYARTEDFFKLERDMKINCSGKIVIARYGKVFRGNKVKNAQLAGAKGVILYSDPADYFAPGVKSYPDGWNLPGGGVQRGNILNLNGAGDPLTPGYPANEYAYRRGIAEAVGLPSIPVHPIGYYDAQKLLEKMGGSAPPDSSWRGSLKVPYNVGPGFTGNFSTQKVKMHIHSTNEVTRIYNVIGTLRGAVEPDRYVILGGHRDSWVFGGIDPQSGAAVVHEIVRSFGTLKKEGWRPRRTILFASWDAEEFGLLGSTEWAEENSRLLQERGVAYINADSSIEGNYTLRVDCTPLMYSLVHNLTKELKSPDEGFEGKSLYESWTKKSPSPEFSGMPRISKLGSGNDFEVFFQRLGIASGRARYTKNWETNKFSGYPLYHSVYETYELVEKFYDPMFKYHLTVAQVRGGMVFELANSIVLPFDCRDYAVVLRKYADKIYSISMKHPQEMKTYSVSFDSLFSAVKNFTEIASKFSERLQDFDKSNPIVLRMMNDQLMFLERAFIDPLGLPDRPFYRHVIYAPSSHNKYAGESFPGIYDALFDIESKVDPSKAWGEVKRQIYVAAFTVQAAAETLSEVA

[2] = biological target: T1, prostate-specific membrane antigen …; experiment: fluorescence polarization binding assay
Experimental: PSMA binding was measured using the fluorescence polarization assay methodology described in Shen et al (2013) PLOS ONE 8(7), e68339 and PSMA enzyme inhibition was measured using the methodology described in WO 2009/070302.

[3] = biological target: T1, prostate-specific membrane antigen …; experiment: cell-based or functional assay

Binder | Ki [1] [nM] | Ki [2] [nM] | Enzyme inhibition IC50 [3] [nM]
B1 | 30 | – | –
FCSECYMMEDGTCA (linker 2-5-13 via TBMB) [21-31-11-T01-N001] | 6 | – | –
B2 | – | 3 | –
CIECYIMEDGTCA (linker 1-4-12 via TBMB) [21-31-01-N001] | 70 | – | –
EVCWD[Dap(Me)]FMMEDGT[Dap(Me)]A (linker 3-6-14 via TBMB, Bicyclic peptide on TBMB scaffold) [21-31-04-T01-N017] | – | 700 | –
ACMVCHMMEDGTCA (linker 2-5-13 via TBMB) [21-31-N002] | 40 | – | 695
